# From US8871909B2, “Antibodies inhibiting c-Met dimerization and uses thereof” (Pierre Fabre Medicament, priority 2007, dated 2014)
# Legend:
# NCI-H441 [1] = test: In vivo combination of 224G11 and Docetaxel on NCI-H441 xenograft model; parameters: species or system Athymic nude mice; settings: D11 to D35; Docetaxel 7.5 mg/kg i.p.
# Experimental: (§1) NCI-H441 cells from ATCC were routinely cultured in RPMI 1640 medium, 10% FCS, 1% L-Glutamine. Cells were split two days before engraftment being in exponential phase of growth. Nine million NCI-H441 cells were engrafted to Athymic nude mice. […] Mice were treated i.p. either with a loading dose of 2 mg of 224G11 Mab/mouse and then twice a week with 1 mg of antibody/mouse or with 4 injections of Docetaxel (D5, D12, D19, D26) at 7.5 mg/kg. A third group administered with the combine treatment was also included. Docetaxel was given by i.p. injections. Tumor volume was measured twice a week and calculated by the formula: π/6×length×width×height and animal weights were monitored every day over the period of Docetaxel treatment. Statistical analysis was performed at each measured time using either a t-test or a Mann-Whitney test. […] Results are represented in FIG. 47.
# NCI-H441 [2] = test: In vivo combination of 224G11 and Doxorubicin on NCI-H441 xenograft model; parameters: species or system Athymic nude mice; settings: D11 to D39; Doxorubicin 5 mg/kg i.v.
# Experimental: as §1, with “growth. Ten” for “growth. Nine”, “of Doxorubicin” for “of Docetaxel”, “at 5” for “at 7.5”, “included. Doxorubicin” for “included. Docetaxel”, “by i.v.” for “by i.p.”, “FIG. 46.” for “FIG. 47.”
# NCI-H441 [3] = test: In vivo combination of 224G11 and Navelbine on NCI-H441 xenograft model (Example 19); parameters: species or system Athymic nude mice; settings: day 41 post first injection
# Experimental: NCI-H441 cells from ATCC were routinely cultured in RPMI 1640 medium, 10% FCS, 1% L-Glutamine. Cells were split two days before engraftment being in exponential phase of growth. Ten million NCI-H441 cells were engrafted to Athymic nude mice. […] Mice were treated i.p. either with a loading dose of 2 mg of 224G11 Mab/mouse and then twice a week with 1 mg of antibody/mouse until Day 38 or with 3 injections of Navelbine® (D5, D12, D19) at 8 mg/kg. A third group administered with the combine treatment was also included. Navelbine® was given by i.p. injections. Tumor volume was measured twice a week and calculated by the formula: π/6×length×width×height and animal weights were monitored every day over the period of Navelbine® treatment. Statistical analysis was performed at each measured time using either a t-test or a Mann-Whitney test. […] Results are represented in FIG. 45.
# BxPC3 cells = test: In vitro inhibition of BxPC3 proliferation ([3H]thymidine incorporation); format: cell-based; settings: BxPC3, in absence of ligand, antibody alone
# Experimental: For that purpose 50 000 BxPC3 cells were plated in 96 well plates in RPMI medium, 2 mM L. Glutamine, without SVF. […] After 3 days, cells were pulsed with 0.5 μCi of [^3H]thymidine for 16 hours. The magnitude of [^3H]thymidine incorporated into trichloroacetic acid-insoluble DNA was quantified by liquid scintillation counting. Results were expressed as raw data to really evaluate the intrinsic agonistic effect of each Mab (FIGS. 2A and 2B).
# NCI-H441 [4] = test: NCI-H441 xenograft model (Example 11)
# From the text: The evaluation of anti-c-met antibodies on the in vivo activity of this non autocrine cell line could give some insights about their potency to impact on c-met dimerization.
# HGF-cMet = target: T1, HGF-cMet (Homo sapiens, UniProt P08581); test: HGF-cMet competition assay (ELISA); format: binding; settings: at high antibody concentration, purified murine antibodies
# T1 construct: recombinant c-Met-Extra-Cellular Domain (ECD) fused to an human IgG Fc domain
# T1 sequence (P08581 25-932 limits assumed): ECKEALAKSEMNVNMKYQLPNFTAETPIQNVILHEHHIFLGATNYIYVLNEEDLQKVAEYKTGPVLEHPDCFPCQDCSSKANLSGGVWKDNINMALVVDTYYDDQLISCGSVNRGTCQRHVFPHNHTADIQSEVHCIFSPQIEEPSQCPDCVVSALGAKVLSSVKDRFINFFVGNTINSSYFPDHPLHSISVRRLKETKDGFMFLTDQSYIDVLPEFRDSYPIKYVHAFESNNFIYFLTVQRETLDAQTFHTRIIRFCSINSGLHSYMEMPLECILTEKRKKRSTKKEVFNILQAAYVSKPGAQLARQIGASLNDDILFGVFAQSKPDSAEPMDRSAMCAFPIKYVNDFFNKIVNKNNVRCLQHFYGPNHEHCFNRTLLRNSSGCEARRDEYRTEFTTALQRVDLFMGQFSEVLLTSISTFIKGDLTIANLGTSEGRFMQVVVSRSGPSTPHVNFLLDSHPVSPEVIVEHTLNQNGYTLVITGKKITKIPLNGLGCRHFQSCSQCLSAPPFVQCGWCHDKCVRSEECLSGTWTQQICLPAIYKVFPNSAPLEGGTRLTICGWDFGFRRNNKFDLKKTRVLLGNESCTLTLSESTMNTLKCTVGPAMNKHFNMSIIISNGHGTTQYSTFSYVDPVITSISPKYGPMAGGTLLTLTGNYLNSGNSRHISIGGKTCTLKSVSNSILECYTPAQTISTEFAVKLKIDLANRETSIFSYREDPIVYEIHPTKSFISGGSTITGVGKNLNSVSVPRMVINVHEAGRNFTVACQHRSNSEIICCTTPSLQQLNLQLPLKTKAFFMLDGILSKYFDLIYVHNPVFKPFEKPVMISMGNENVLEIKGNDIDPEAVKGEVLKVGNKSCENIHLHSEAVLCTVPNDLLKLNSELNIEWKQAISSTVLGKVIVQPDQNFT
# From the text: FIG. 54: HGF-cMet competition assay. In this ELISA-based assay, recombinant Fc-cMET residual binding to plastic coated HGF in the presence of purified murine monoclonal antibodies 11E1, 224G11 and 227H1 was detected with […] and measured at 450 nm;
# FIG. 58: HGF-cMet competition assay of 227H1 murine and recombinant antibodies. In this ELISA-based assay, recombinant Fc-cMet residual binding to plastic coated HGF in the presence of the different forms of the 227H1 antibody was detected with a biotinylated unrelated anti-cMet antibody. Purified murine 227H1 monoclonal antibody, chimeric and HZ4VH-derived humanized 227H1-derived recombinant antibodies were tested and compared for their abilities to compete with HGF-cMet binding when measured at 450 nm;
# Humanization of the anti-cMet antibodies were performed independently for each chain and sequentially, regarding to the analysed amino acids in each variable domain. The humanization process was evaluated in a first attempt in an ELISA-based binding assay to recombinant Fc-cMet; binding activities the humanized antibodies being compared to the recombinant chimeric antibody. In a second attempt, anti-cMet humanized antibodies were evaluated for their abilities to displace the Fc-cMet binding onto plastic-coated recombinant HGF; this competition assay allowing the direct comparison of murine, chimeric and humanized versions of the anti-cMet antibodies.
# These two assays were used to characterize the recombinant chimeric and humanized versions of the murine anti-cMet antibodies. To this end, briefly, anti-cMet variable domains, either murine or humanized, were cloned into LONZA's pCONplus expression vectors series and recombinant IgG1/κ-derived antibodies were expressed in CHO cells. […] Both direct binding and HGF-competition assays were assessed to better characterize recombinant chimeric or humanized versions.
# c-Met = test: BRET analysis of c-Met dimerization on c-Met transfected CHO cells; format: cell-based; settings: CHO cells expressing C-Met-Rluc and C-Met-K1100A-YFP, supernatants
# Chain of c-Met (P08581 25-307 limits assumed): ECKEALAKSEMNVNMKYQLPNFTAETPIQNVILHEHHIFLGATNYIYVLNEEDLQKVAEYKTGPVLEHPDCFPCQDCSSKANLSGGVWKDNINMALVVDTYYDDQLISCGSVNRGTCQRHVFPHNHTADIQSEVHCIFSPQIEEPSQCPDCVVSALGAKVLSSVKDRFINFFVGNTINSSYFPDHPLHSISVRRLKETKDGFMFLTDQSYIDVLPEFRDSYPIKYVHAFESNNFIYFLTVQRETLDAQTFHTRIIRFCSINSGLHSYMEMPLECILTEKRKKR
# Chain of c-Met (P08581 308-932 limits assumed): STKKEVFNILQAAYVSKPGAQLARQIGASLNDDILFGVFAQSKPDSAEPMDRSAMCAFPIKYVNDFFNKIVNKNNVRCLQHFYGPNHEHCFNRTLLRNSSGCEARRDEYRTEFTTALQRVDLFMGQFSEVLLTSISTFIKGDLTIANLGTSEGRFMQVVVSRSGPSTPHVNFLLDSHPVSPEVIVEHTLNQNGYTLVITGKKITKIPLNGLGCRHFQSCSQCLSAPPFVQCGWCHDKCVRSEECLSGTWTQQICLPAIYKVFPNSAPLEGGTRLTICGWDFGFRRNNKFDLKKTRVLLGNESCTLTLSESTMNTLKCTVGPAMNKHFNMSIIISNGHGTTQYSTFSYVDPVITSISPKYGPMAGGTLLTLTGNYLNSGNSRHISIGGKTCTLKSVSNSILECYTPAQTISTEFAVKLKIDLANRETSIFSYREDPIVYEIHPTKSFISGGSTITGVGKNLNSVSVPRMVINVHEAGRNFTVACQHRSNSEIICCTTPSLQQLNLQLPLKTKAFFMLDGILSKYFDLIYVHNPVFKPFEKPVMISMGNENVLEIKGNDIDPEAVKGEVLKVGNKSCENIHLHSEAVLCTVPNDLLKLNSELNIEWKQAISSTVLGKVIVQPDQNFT
# From the text: The technology BRET, used in the step iii) of the process, is well known by the person skill in the art and will be detailed in the following examples. More particularly, BRET (Bioluminescence Resonance Energy Transfer) is a non-radiative energy transfer occurring between a bioluminescent donor (Renilla Luciferase (Rluc)) and a fluorescent acceptor, a mutant of GFP (Green Fluorescent Protein) or YFP (Yellow fluorescent protein). In the present case EYFP (Enhanced Yellow Fluorescent Protein) was used. The efficacy of transfer depends on the orientation and the distance between the donor and the acceptor. Then, the energy transfer can occur only if the two molecules are in close proximity (1-10 nm). This property is used to generate protein-protein interaction assays. Indeed, in order to study the interaction between two partners, the first one is genetically fused to the Renilla Luciferase and the second one to the yellow mutant of the GFP. Fusion proteins are generally, but not obligatory, expressed in mammalian cells. In presence of its membrane permeable substrate (coelenterazine), Rluc emits blue light. If the GFP mutant is closer than 10 nm from the Rluc, an energy transfer can occur and an additional yellow signal can be detected. The BRET signal is measured as the ratio between the light emitted by the acceptor and the light emitted by the donor. So the BRET signal will increase as the two fusion proteins are brought into proximity or if a conformational change bring Rluc and GFP mutant closer.
# Then antibodies inhibiting at least 50% cell proliferation were evaluated as supernatants by BRET analysis on c-Met transfected cells. For that purpose, CHO stable cell lines expressing C-Met-Rluc or C-Met-Rluc and C-Met-K1100A-YFP were generated. Cells were distributed in white 96 well microplates in DMEM-F12/FBS 5% culture medium one or two days before BRET experiments. Cells were first cultured at 37° C. with CO2 5% in order to allow cell attachment to the plate. Cells were then starved with 200 μl DMEM/well overnight. Immediately prior to the experiment, DMEM was removed and cells quickly washed with PBS. Cells were incubated in PBS in the presence or absence of antibodies to be tested or reference compounds, 10 min at 37° C. prior to the addition of coelenterazine with or without HGF in a final volume of 50 μl. […]
# BRET ratio has been defined previously [Angers et al., Proc. Natl. Acad. Sci. USA, 2000, 97:3684-3689] as: [(emission at 530 nm)−(emission at 485 nm)×Cf]/(emission at 485 nm), where Cf corresponds to (emission at 530 nm)/(emission at 485 nm) for cells expressing Rluc fusion protein alone in the same experimental conditions. […] For the sake of readability, results are expressed in milliBRET units (mBU); mBU corresponds to the BRET ratio multiplied by 1000.
# SEMA domain = target: T2, SEMA domain (Homo sapiens, UniProt P08581); test: ELISA recognition of recombinant SEMA domain; format: binding
# T2 construct: the recombinant c-Met-Fc protein and the recombinant SEMA domain
# T2 sequence (P08581 27-515 limits assumed): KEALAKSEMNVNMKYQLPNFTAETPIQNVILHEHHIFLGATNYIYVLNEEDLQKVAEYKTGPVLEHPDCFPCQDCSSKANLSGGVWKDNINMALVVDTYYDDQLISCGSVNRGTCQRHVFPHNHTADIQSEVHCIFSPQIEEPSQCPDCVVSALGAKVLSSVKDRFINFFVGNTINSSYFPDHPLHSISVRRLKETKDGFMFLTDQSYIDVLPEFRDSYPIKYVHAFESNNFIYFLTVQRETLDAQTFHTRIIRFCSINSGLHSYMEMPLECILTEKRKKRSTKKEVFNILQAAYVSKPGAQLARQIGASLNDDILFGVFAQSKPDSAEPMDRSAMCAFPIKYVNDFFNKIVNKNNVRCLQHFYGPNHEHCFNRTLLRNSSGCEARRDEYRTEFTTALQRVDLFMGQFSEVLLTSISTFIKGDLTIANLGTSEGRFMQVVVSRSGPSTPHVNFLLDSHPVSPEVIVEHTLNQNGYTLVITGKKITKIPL
# Experimental: To characterize the pattern of recognition of the 3 selected antibodies, 3 ELISA have been set up with the recombinant c-Met protein, its monomeric fragment (obtained by cleavage of the recombinant c-Met-Fc protein and the recombinant SEMA domain.
# To perform these ELISA the human dimeric c-Met protein (R&D sytems, cat#358MT) is coated at the concentration of 0.7 μg/ml in PBS overnight at 4° C. After saturation of the plates (Costar #3690) with a 0.5% gelatin solution 2 hours at 37° C., hybridoma supernatants are incubated 1 hour at 37° C. Once rinsed with PBS, the anti-mouse HRP-antibody (Jackson ImmunoResearch, catalog #115-035-164) is added to each well at a 1/5000 dilution in ELISA buffer (0.1% gelatin/0.05% Tween 20 in PBS) and the plates incubated for 1 hour at 37° C. […] The reaction is left to occur for 5 min at room temperature. The reaction is stopped by the addition of 50 μl/well of a 1 M H2SO4 solution and read on a plate reader at 450 nm. The same kind of protocol was performed on monomeric c-Met and SEMA domain but in that cases proteins were coated at 5 and 3 μg/ml respectively.
# A549 cells = test: Matrigel invasion assay with A549 cells; format: cell-based; settings: A549, Mab 10 μg/ml, basal (no HGF)
# Experimental: To evaluate the inhibiting effect of the anti-c-Met antibodies on the invasion process, A549 cells were plated in the upper chamber of BD BioCoat™ Matrigel™ invasion chambers (6.5 mm diameter wells with 8-μm pre size polycarbonate membranes). A459 cells were starved 24 hours before performing the invasion assay. Then 500 000 A549 cells were plated in chemotaxis buffer (DMEM medium, 0.1% BSA, 12 mM Hepes) in the upper well of each chamber, upon the Matrigel coating either with or without the antibody to be tested (final Mab concentration 10 μg/ml). After 1 hour incubation of the plates at 37° C. with 5% CO2, the lower chambers were filled with either growth medium containing 400 ng/ml of rhHGF or with growth medium alone. The chambers were incubated for 48 additional hours at 37° C. with 5% CO2. At the end of this incubation time, cells that remained on upper surface of the filter were gently removed with a cotton swab, cells that migrated to the lower surface of the filter were lysed, stained with CyQuant GR dye buffer (Invitrogen) and counted using a fluorescence reader Berthold Mithras LB940. All conditions were tested as triplicates.
molecule,measurement,setting,value
"CC(=O)O[C@@]12CO[C@@H]1C[C@H](O)[C@@]1(C)C(=O)[C@H](O)C3=C(C)[C@@H](OC(=O)[C@H](O)[C@@H](NC(=O)OC(C)(C)C)c4ccccc4)C[C@@](O)([C@@H](OC(=O)c4ccccc4)[C@H]21)C3(C)C [Docetaxel, reference compound]",anti-tumor activity compared to the control group,NCI-H441 [1],significant anti-tumor activity
"COc1cccc2c1C(=O)c1c(O)c3c(c(O)c1C2=O)C[C@@](O)(C(=O)CO)C[C@@H]3O[C@H]1C[C@H](N)[C@H](O)[C@H](C)O1 [Doxorubicin, reference compound]",anti-tumor activity compared to the control group,NCI-H441 [2],significant anti-tumor activity
"CCC1=C[C@@H]2CN(C1)Cc1c([nH]c3ccccc13)[C@@](C(=O)OC)(c1cc3c(cc1OC)N(C)[C@H]1[C@@](O)(C(=O)OC)[C@H](OC(C)=O)[C@]4(CC)C=CCN5CC[C@]31[C@@H]54)C2 [Navelbine®, reference compound]",reduction of average tumor volume,NCI-H441 [3],76%
"227H1: murine anti-c-Met monoclonal antibody, IgG1 kappa; heavy chain SEQ ID No. 19, light chain SEQ ID No. 22 (antibody, V domains shown, mus musculus) VH: EVQLQQSGPELVKPGASMKISCKASGYSFTDYTLNWVKQSHGKTLEWIGLINPYNGGTTYNQKFKGKATLTVDKSSSTAYMELLSLTSEDSAVYYCAREEITKDFDFWGQGTTLTVSS VL: GIVLTQSPASLAVSLGQRATISCRVSESIDTYGNSFIHWYQQKPGQPPKLLIYRASNLESGIPARFSGSGSRTDFTLTINPVEADDSATYYCQQSNEDPFTFGSGTKLEMK",agonist activity on cell proliferation,BxPC3 cells,without any agonist activity
same,inhibition of in vivo growth of NCI-H441,NCI-H441 [4],inhibited significantly
same,maximum of HGF binding displacement,HGF-cMet,100%
same,inhibition of dimerization,c-Met,52%
same,binding to SEMA domain,SEMA domain,did not bind
same,"agonist effect on invasion, added alone",A549 cells,No agonist effect
